Source: patent US20060140858A1, “Drug pre-targeting by means of bi-specific antibodies and hapten constructs comprising a carrier peptide and the active agent(s)” (Immunomedics, Inc., priority 2002, published 2006)
Marks after values point to notes of the source that are not given here.

Assays:
[1] = In-vitro stability of In/In-111 IMP 224, reverse phase HPLC; assay type: physicochemical
Method: Aliquots (0.15 mL, 370 μCi) were withdrawn and mixed with 0.9 mL 0.5 M citrate buffer pH 4.0, 0.9mL 0.5 M citrate buffer pH 5.0, and 0.9 mL 0.5 M phosphate buffer pH 7.5. The stability of the labeled peptide was followed by reverse phase HPLC. HPLC Conditions: Waters Radial-Pak C-18 Nova-Pak 8×100 mm, Flow Rate 3 mL/min, Gradient: 100% A=0.3.% NH4OAc to 100% B=90% CH3CN, 0.3% NH4OAc over 10 min.

[2] = In-vivo stability and clearance of IMP 224; parameters: species or system mouse
Method: Kits were reconstituted with 4 mCi In-111 in 0.5 mL water. The In-111 kit was incubated at room temperature for 10 min and then diluted with 0.5 mL of the cold indium containing 0.5 M pH 7.2 acetate buffer.

[3] = Pretargeting: I-125 F6 × 734-F(ab′)2, 72 h later In-111-IMP-224, biodistribution; details: female, mouse, in vivo, total radioactivity; for tissue to tissue ratio at 1 h / tissue to tissue ratio at 4 h / tissue to tissue ratio at 24 h: 10 uCi, tumor-to-normal organ ratio; for tissue uptake at 1 h / tissue uptake at 4 h / tissue uptake at 24 h: % ID/g tissue
GW-39 tumor xenografts = assay: as above
[4] = nude (Taconic NCRNU), Blood, 1 h
[5] = nude (Taconic NCRNU), Blood, 4 h
[6] = nude (Taconic NCRNU), Blood, 24 h
[7] = nude (Taconic NCRNU), Kidney, 1 h
[8] = nude (Taconic NCRNU), Kidney, 4 h
[9] = nude (Taconic NCRNU), Kidney, 24 h
[10] = nude (Taconic NCRNU), Large Int., 1 h
[11] = nude (Taconic NCRNU), Large Int., 4 h
[12] = nude (Taconic NCRNU), Large Int., 24 h
[13] = nude (Taconic NCRNU), Lungs, 1 h
[14] = nude (Taconic NCRNU), Lungs, 4 h
[15] = nude (Taconic NCRNU), Lungs, 24 h
[16] = nude (Taconic NCRNU), Muscle, 1 h
[17] = nude (Taconic NCRNU), Small Int., 4 h
[18] = nude (Taconic NCRNU), Small Int., 24 h
[19] = nude (Taconic NCRNU), Stomach, 1 h
[20] = nude (Taconic NCRNU), Stomach, 4 h
[21] = nude (Taconic NCRNU), Stomach, 24 h

COc1cccc2c1C(=O)c1c(O)c3c(c(O)c1C2=O)C[C@@](O)(C(CO)=NNc1ccc(C(=O)N[C@@H](CCCCNC(=O)CN(CCN(CCN(CC(=O)O)CC(=O)O)CC(=O)O)CC(=O)O)C(=O)N[C@@H](Cc2ccc(O)cc2)C(=O)N[C@@H](CCCCNC(=O)CN(CCN(CCN(CC(=O)O)CC(=O)O)CC(=O)O)CC(=O)O)C(N)=O)cc1)C[C@@H]3O[C@H]1C[C@H](N)[C@H](O)[C@H](C)O1 [IMP 224, Dox = N—NH—C6H4—CO-Lys(DTPA)-Tyr-Lys(DTPA)-NH2]
Intact Peptide ([1]; Kit, time cell empty (first line)): 00 | Intact Peptide ([1]; Kit, time printed '1 hr'): 9 | Intact Peptide ([1]; pH 4.0, time printed '4 min'): 00 | Intact Peptide ([1]; pH 4.0, time printed '9 hr'): 5 | Intact Peptide ([1]; pH 4.0, time printed 'hr', some peptide decomposed but not included in peak areas): 00* | Intact Peptide ([1]; pH 5.0, time printed '0 min'): 00 | Intact Peptide ([1]; pH 5.0, time printed '0 hr'): 1 | Intact Peptide ([1]; pH 5.0, time printed 'hr', some peptide decomposed but not included in peak areas): 00* | Intact Peptide ([1]; pH 7.5, time printed '0 hr'): 0 | Intact Peptide ([1]; pH 7.5, time printed '.5 hr' (first line)): 00 | Intact Peptide ([1]; pH 7.5, time printed '.5 hr' (second line)): 4 | Activity Recovered ([2]; Serum, 30 min, Animal #1): 1.92 µCi | Activity Recovered ([2]; Serum, 30 min, Animal #2): 3.64 µCi | Activity Recovered ([2]; Serum, 1 hr, Animal #1): 1.21 µCi | Activity Recovered ([2]; Serum, 1 hr, Animal #2): 1.27 µCi | Activity Recovered ([2]; Urine, 30 min, Animal #1): 220 µCi | Activity Recovered ([2]; Urine, 30 min, Animal #2): 133 µCi | Activity Recovered ([2]; Urine, 1 hr, Animal #1): 41.1 µCi | Activity Recovered ([2]; Urine, 1 hr, Animal #2): 273 µCi | dose excreted ([2]; mouse, urine, 400 uCi, read-out: renal excretion): ~100% | integrity of excreted peptide (reverse phase HPLC) ([2]; urine): excreted intact in the urine | antibody binding of urine activity (size exclusion HPLC) ([2]; urine, 30 min and 1 hr): could still bind to the antibody | tissue to tissue ratio at 1 h ([3]; NCRNU nude, GW-39, 1 h): 1 | tissue to tissue ratio at 4 h ([3]; NCRNU nude, GW-39, 4 h): 1 | tissue to tissue ratio at 24 h ([3]; NCRNU nude, GW-39, 24 h): 1 | tissue to tissue ratio at 1 h ([3]; NCRNU nude, Liver, 1 h): 24 ± 5.9 | tissue to tissue ratio at 4 h ([3]; NCRNU nude, Liver, 4 h): 35.4 ± 6.9 | tissue to tissue ratio at 24 h ([3]; NCRNU nude, Liver, 24 h): 31.6 ± 5.8 | tissue to tissue ratio at 1 h ([3]; NCRNU nude, Tail, 1 h): 9.4 ± 2.8 | tissue to tissue ratio at 4 h ([3]; NCRNU nude, Tail, 4 h): 26.4 ± 5.2 | tissue to tissue ratio at 24 h ([3]; NCRNU nude, Tail, 24 h): 55.9 ± 5.7 | tissue to tissue ratio at 1 h ([3]; NCRNU nude, Urine, 1 h): 0.3 ± 0.5 | tissue to tissue ratio at 4 h ([3]; NCRNU nude, Urine, 4 h): 0.71 ± 0.6 | tissue to tissue ratio at 24 h ([3]; NCRNU nude, Urine, 24 h): 8.3 ± 1.3 | tissue to tissue ratio at 1 h [3, 4]: 6.1 ± 2.5 | tissue to tissue ratio at 4 h [3, 5]: 12.8 ± 2 | tissue to tissue ratio at 24 h [3, 6]: 41.8 ± 6.3 | tissue to tissue ratio at 1 h [3, 7]: 3 ± 0.5 | tissue to tissue ratio at 4 h [3, 8]: 3.9 ± 0.5 | tissue to tissue ratio at 24 h [3, 9]: 5 ± 0.5 | tissue to tissue ratio at 1 h [3, 10]: 87.1 ± 35 | tissue to tissue ratio at 4 h [3, 11]: 45.6 ± 19 | tissue to tissue ratio at 24 h [3, 12]: 92.4 ± 38 | tissue to tissue ratio at 1 h [3, 13]: 13.4 ± 2.7 | tissue to tissue ratio at 4 h [3, 14]: 30.1 ± 4.9 | tissue to tissue ratio at 24 h [3, 15]: 69 ± 9.4 | tissue to tissue ratio at 1 h [3, 16]: 38.6 ± 13 | tissue to tissue ratio at 4 h ([3]; nude (Taconic NCRNU), Muscle, 4 h): 727 ± 797 | tissue to tissue ratio at 24 h ([3]; nude (Taconic NCRNU), Muscle, 24 h): 283 ± 46 | tissue to tissue ratio at 4 h [3, 17]: 51.6 ± 14 | tissue to tissue ratio at 24 h [3, 18]: 110 ± 13 | tissue to tissue ratio at 1 h ([3]; nude (Taconic NCRNU), Spleen, 1 h): 28.7 ± 8.7 | tissue to tissue ratio at 4 h ([3]; nude (Taconic NCRNU), Spleen, 4 h): 44.7 ± 10 | tissue to tissue ratio at 24 h ([3]; nude (Taconic NCRNU), Spleen, 24 h): 47 ± 2.2 | tissue to tissue ratio at 1 h [3, 19]: 48.7 ± 37 | tissue to tissue ratio at 4 h [3, 20]: 128 ± 46 | tissue to tissue ratio at 24 h [3, 21]: 147 ± 39 | tissue uptake at 1 h [3, 4]: 1.8 ± 0.6 %ID/g | tissue uptake at 4 h [3, 5]: 0.9 ± 0.2 %ID/g | tissue uptake at 24 h [3, 6]: 0.2 %ID/g | tissue uptake at 1 h [3, 7]: 3.5 ± 0.6 %ID/g | tissue uptake at 4 h [3, 8]: 2.8 ± 0.3 %ID/g | tissue uptake at 24 h [3, 9]: 1.9 ± 0.2 %ID/g | tissue uptake at 1 h [3, 10]: 0.1 %ID/g | tissue uptake at 4 h [3, 11]: 0.3 ± 0.1 %ID/g | tissue uptake at 24 h [3, 12]: 0.1 ± 0.1 %ID/g | tissue uptake at 1 h [3, 13]: 0.8 ± 0.2 %ID/g | tissue uptake at 4 h [3, 14]: 0.4 %ID/g | tissue uptake at 24 h [3, 15]: 0.1 %ID/g | tissue uptake at 1 h [3, 16]: 0.3 ± 0.2 %ID/g | tissue uptake at 1 h ([3]; nude (Taconic NCRNU), Small Int., 1 h): 0.5 ± 0.4 %ID/g | tissue uptake at 4 h [3, 17]: 0.2 %ID/g | tissue uptake at 24 h [3, 18]: 0.1 %ID/g | tissue uptake at 1 h [3, 19]: 0.8 ± 1.3 %ID/g | tissue uptake at 4 h [3, 20]: 0.1 %ID/g | tissue uptake at 24 h [3, 21]: 0.1 %ID/g | % ID/g tissue (GW-39 tumor xenografts; GW-39, 1 h): 10.3 ± 1.7 % ID/g | % ID/g tissue (GW-39 tumor xenografts; GW-39, 4 h): 11.0 ± 2.0 % ID/g | % ID/g tissue (GW-39 tumor xenografts; GW-39, 24 h): 9.7 ± 1.1 % ID/g | % ID/g tissue (GW-39 tumor xenografts; Liver, 1 h): 0.4 ± 0.1 % ID/g | % ID/g tissue (GW-39 tumor xenografts; Liver, 4 h): 0.3 ± 0.0 % ID/g | % ID/g tissue (GW-39 tumor xenografts; Liver, 24 h): 0.3 ± 0.0 % ID/g | % ID/g tissue (GW-39 tumor xenografts; Muscle, 4 h): 0.0 ± 0.0 % ID/g | % ID/g tissue (GW-39 tumor xenografts; Muscle, 24 h): 0.0 ± 0.0 % ID/g | tumor-to-normal organ ratio (GW-39 tumor xenografts; Small Int., 1 h): 31.9 ± 18 | % ID/g tissue (GW-39 tumor xenografts; Spleen, 1 h): 0.4 ± 0.1 % ID/g | % ID/g tissue (GW-39 tumor xenografts; Spleen, 4 h): 0.2 ± 0.0 % ID/g | % ID/g tissue (GW-39 tumor xenografts; Spleen, 24 h): 0.2 ± 0.0 % ID/g | % ID/g tissue (GW-39 tumor xenografts; Tail, 1 h): 1.1 ± 0.2 % ID/g | % ID/g tissue (GW-39 tumor xenografts; Tail, 4 h): 0.4 ± 0.1 % ID/g | % ID/g tissue (GW-39 tumor xenografts; Tail, 24 h): 0.2 ± 0.0 % ID/g | % ID/g tissue (GW-39 tumor xenografts; Urine, 1 h): 168 ± 106 % ID/g | % ID/g tissue (GW-39 tumor xenografts; Urine, 4 h): 31.8 ± 31 % ID/g | % ID/g tissue (GW-39 tumor xenografts; Urine, 24 h): 1.2 ± 0.2 % ID/g
